Laboratory results taken from the supplement of paper PMC9170038.

Tested on: MS2 coat protein
Test: apparent KD of MS2 coat protein; designed switch direction (-1 OFF switch, 1 ON switch): -1; higher = weaker reporter binding
How it was run: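 Each step of the titration lasted 0.8–1.5 h at the lowest concentration and 10–20 min at the highest. The protein, SNAP-549-labelled MS2 coat protein, went from 0.7 or 1.5 nM doubling to 3 µM over RNA switches transcribed on Illumina chips by stalled E. coli RNA polymerase. Normalised cluster fluorescence was curve-fitted, and the per-design median over clusters is given as apparent KD.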

[1] = Eterna round: R95, input ligand: FMN 200 uM
[2] = Eterna round: R95, input ligand: microRNA oligo, concentration not stated
[3] = Eterna round: R95, input ligand: none
[4] = input ligand: microRNA oligo, concentration not stated

Row | Sequence | apparent KD of MS2 coat protein [2] [nM] | apparent KD of MS2 coat protein (input ligand: FMN 200 uM) [nM] | apparent KD of MS2 coat protein (input ligand: none) [nM] | also measured
1 | ACUAGCUUUUUGCAUAUUAGGUUUGUUGCUUCGUAUGUAACAUGAGGAUCACCCAUGUAUUACUGAUGUCGUCGUUU [JR_SV3TOV2_Sub091] (puzzle: Sensor v3, turn-off variant 2) | 17.3 |  |  | apparent KD of MS2 coat protein [1]: 20 nM; apparent KD of MS2 coat protein [3]: 16.9 nM
2 | UCGCUCCGUGUAGGAUAUCGCCGUACGAUGCGGCGAGAAGGACAUGAGGAUCACCCAUGUAUGUUAUUAUCACGCGUGGCGCAA [Design 62] (Eterna round: R96, puzzle: Exclusion NG 1) |  | 21.3 | 16.5 | apparent KD of MS2 coat protein [4]: 11.3 nM
3 | CUUUUGUGAGGAUAUCAGUAGUAAAUAAAUAAUAUUACUACUGAGAAGGCACAUGAGGAUCACCCAUGUUCCUC [salish99_ex3_r3_083] (Eterna round: R96, puzzle: Exclusion 4) |  | 385 | 45.3 | apparent KD of MS2 coat protein [4]: 39 nM
4 | GCCGAUUAAGUGAGGAUAUACCUAUGGAUACAUAGGUAGAAGGCACAUGAGGAUCACCCAUGUUCCUCAACGGC [Fiskers BMX 4 - 6] (puzzle: Brourd's mod of Exclusion 4) | 15 |  |  | 
5 | CCUCAACAGGUCAGGAUAUACCCAACGGCGGACGGGUAGAAGGGACAUGAGGAUCACCCAUGUCCAGAGGUGAG [Eternabot (Original) Solution 11] (Eterna round: R97, puzzle: Brourd's mod of Exclusion 4) |  | 45.5 | 16.9 | 
6 | GGCAUGCAAGGAUAUACUUACGGUGAUGUUCGAAGCUUUCUACUUGAGGAUCACCCAAGUAGAAGGUGCAUGCC [jl-ex2.4.75 ViennaUCT mod] (Eterna round: R97, puzzle: Exclusion 2) |  | 10.5 | 21.1 | 
7 | AGCUGUGGCCGAGGAUAUCUAGCUUCAAUAACCGAAAUAUAAUCGGACAUGAGGAUCACCCAUGUAGAGAAGGCGGUCUCAGCA [Eli eng2 - 084] (Eterna round: R96, puzzle: Exclusion NG 2) |  |  |  | apparent KD of MS2 coat protein [4]: 22.3 nM
8 | CCUCUAACCUAGGAUAUAGGUAGACCUAGUCGCCUAGAAGGAGGUACAUGAGGAUCACCCAUGUAUAUUGGGCU [Inmaor] (puzzle: Exclusion 6) | 173 |  |  | 
9 | GUUAGACAUGAGGAUCACCCAUGUGAGGAUAUGAUGCGAAUAAUGAAUGAAGAAAGCAUCAGAAGGCACAUAUG [Mat - Mod of Hyphema D29] (puzzle: Exclusion 1) | 296 |  |  | apparent KD of MS2 coat protein [1]: 375 nM; apparent KD of MS2 coat protein [3]: 221 nM
10 | GAGAACGUAGGAUAUACAUGAGGAUCACCCAUGUGAGGAAGGAGUAGGAAGCGUGGAAGUAGAAGGACGGAGAG [JR_Exclu3_Sub073] (puzzle: Exclusion 3) | 40.6 |  |  | apparent KD of MS2 coat protein [1]: 57.6 nM; apparent KD of MS2 coat protein [3]: 24.5 nM
11 | AGAGGGCGAGGAUAUGCUAAAAGUGGUGCAGUUGUUCGUCGACUUGAGGAUCACCCAAGUAGAAGGCGCACUUC [Sointeer] (Eterna round: R97, puzzle: Exclusion 2) |  | 67.9 | 18.5 | 
12 | CAGUACUGAGGAUAUACAUGAGGAUCACCCAUGUGUCCCAGCUAGGAAACUAGCAAAAGUAGAAGGCAGUACUG [Fiskers Ex 3 828 mod 1] (Eterna round: R96, puzzle: Exclusion 3) |  |  |  | apparent KD of MS2 coat protein [4]: 20.6 nM
13 | AGUGUGUGGCAGGAUAUGCAAUUUAUAGGUGAAGCAGAAGGGUCUACAUGAGGAUCACCCAUGUGUGCGGUUGA [Ex6 #20] (Eterna round: R97, puzzle: Exclusion 6) |  | 600 | 188 | 
14 | AAGUACCGUCACGAUAGUGAUGGUACAACAAGCAUGUAAACAUGAGGAUCACCCAUGUCCUCGAAUGCUCGUCUUAU [Sensor 3 - 66] (puzzle: Sensor v3, turn-off variant 2) | 772 |  |  | apparent KD of MS2 coat protein [1]: 554 nM; apparent KD of MS2 coat protein [3]: 519 nM
15 | GUGAACGGAGGAUAUAUAUGGGCAGCAUACGCUGCAGCUUCACAUGAGGAUCACCCAUGUAGAAGGCUGUACAC [Mat - Exclusion 2 - Mod of Hyphema - D101] (puzzle: Exclusion 2) | 8.26 |  |  | 
16 | ACCCUCCCGCAGGAUAUAAUAAAGUGGUACUUAUUAGAAGGGCGUACAUGAGGAUCACCCAUGUCGUGACGUGC [Eternabot (L1) Solution 5] (Eterna round: R97, puzzle: Exclusion 6) |  | 25.5 | 25.9 | 

Row | Sequence | apparent KD of MS2 coat protein [2] [nM] | apparent KD of MS2 coat protein (input ligand: FMN 200 uM) [nM] | apparent KD of MS2 coat protein (input ligand: none) [nM] | also measured
17 | GGAGAGGCAGGAUAUACAUGAGGAUCACCCAUGUGAGCGAGGAGAACGAGCAAGAGAGGUAGAAGGGCCGGGAG [AK-MS2ROC-r4-exclusion3-27] (Eterna round: R97, puzzle: Exclusion 3) |  | 46.5 | 44.9 | 
18 | AGCUAGUCAGGAUAUUCUAAUAAUUACAUGAGGAUCACCCAUGUGAAGAGACAAGGGUGUGAAGAAGGGACUAGCG [Omei Ex5 A1] (Eterna round: R97, puzzle: Exclusion 5) |  | 188 | 600 | 
19 | UAUUGUAGACAGGAUAUCUAUCGGGUAACCCGAAGAGAAGGGUCUACAUGAGGAUCACCCAUGUGGCCCGUUUU [EX6 B.29] (Eterna round: R97, puzzle: Exclusion 6) |  | 42 | 21.5 | 
20 | AGCUUUUUGCUCGUCUUAUACAUGAGGAUCACCCAUGUAUUGGACCACAUCGAUAGAUGUGGACCAAGAAGCGUGGU [Omdei Mir OFFv1 C4] (Eterna round: R97, puzzle: Sensor, turn-off variant 1) |  | 38.6 | 39.7 | 
21 | AAUAAGCGAGGAUAUACACCCGGAAAACGGGAACGGGCGAGACAUGAGGAUCACCCAUGUAGAAGGCGCGUCAA [Sogexe] (Eterna round: R97, puzzle: Exclusion 2) |  | 28 | 77.9 | 
22 | GGCACACAUGAGGAUCACCCAUGUGAGGAUAUGUGGCGAUCGUCGAUAGACGAUAGCCACAGAAGGCACAGGCC [Mat - Exclusion 1 - Eli Mod - D21] (Eterna round: R97, puzzle: Exclusion 1) |  | 23.2 | 19.2 | 
23 | ACAUGAGGAUCACCCAUGUCUGGCUGGUCUGCUCCGGCUGUUGAGGAUAUAGUUCGGUGUUCGCGCUAGAAGGUGAGGGCUGGC [Aenatbe mod 37] (Eterna round: R96, puzzle: Exclusion NG 3) |  | 32.2 | 35.6 | apparent KD of MS2 coat protein [4]: 23.1 nM
24 | ACUUACUGAGGAUAUACAUAGAUUUACAUGAGGAUCACCCAUGUUCCUCUAAGUAUAUAUGUAGAAGGCAGAAGGG [Mat - Exclusion 5 - JL Mod - D41] (Eterna round: R97, puzzle: Exclusion 5) |  | 55.6 | 166 | 
25 | AUAUACGGAGGAUAUACUUGAGGAUCACCCAAGUGGGAUCCCGUUUGGGCGGUAAAUAGUAGAAGGCCGACCCA [jl-ex3-4.41 ViennaUCT mod] (Eterna round: R97, puzzle: Exclusion 3) |  | 31.3 | 29 | 
26 | AAAUUGCUAGAGGAUAUCGGAUAGGAUCUAUCGCGAGAAGGCUGGACAUGAGGAUCACCCAUGUUCUGUUGGGA [EX6 #29] (Eterna round: R97, puzzle: Exclusion 6) |  | 57.4 | 25.2 | 
27 | UGUACGAUGCGUGCUGACAUGCGUCGUGCAGCAGGUGAUACAUGAGGAUCACCCAUGUCCUCAUUUGCUCGUCAUGU [Mat - Sensor v3 - Turn-off var 2 - D25] (puzzle: Sensor v3, turn-off variant 2) | 384 |  |  | apparent KD of MS2 coat protein [1]: 73.4 nM; apparent KD of MS2 coat protein [3]: 91.3 nM
28 | UUGUGCACGCUGCGAUCCUACAUGAGGAUCACCCAUGUGGUCUGGUGGCGUGGGUCACCGGACUUGGCUCGUCUUGU [salish99_S_TOV1_R5_080] (Eterna round: R97, puzzle: Sensor, turn-off variant 1) |  | 69.6 | 80.8 | 
29 | UUUAGUUCAGGAUAUGUAGAAUUUAACAUGAGGAUCACCCAUGUAGAUCCUGAAUUAACUACAGAAGGGAACAUUU [Exclusion 5: 2:a mod2] (Eterna round: R97, puzzle: Exclusion 5) |  | 69.1 | 15.2 | 
30 | GUGUACGGAGGAUAUAUGUGGUGAGCAUACGCUCAAGCUUCACAUGAGGAUCACCCAUGUAGAAGGCUGUGCAC [JL-ex2-2.13 Brourd mod] (puzzle: Exclusion 2) | 118 |  |  | 
31 | UAAAGGCUAGGAUAUCGCACCUUCGACAUGAGGAUCACCCAUGUAUGUCGAUGGUAAAAUCGAGAAGGAGCGAGAA [Artiedqu] (puzzle: Exclusion 5) | 21.7 |  |  | apparent KD of MS2 coat protein [1]: 31.7 nM; apparent KD of MS2 coat protein [3]: 17.8 nM
32 | CAGUACUGAGGAUAUACAUGAGGAUCACCCAUGUGAGUGAUACUAGUGAGGUCGAUUAGUAGAAGGCAGUACUG [Mat X3R4 m27] (Eterna round: R97, puzzle: Exclusion 3) |  | 1110 | 123 | 
